Test results from patent US9522945B2 (OPKO Biologics Ltd., priority 2012, dated 2016).
Read-outs that look alike come from different tables or passages of the source.

Key:
[1] = parameters: species or system rats; conditions: rat, in vivo
Excerpt: Cohorts of 3 animals per group were bled at alternating time points. […] The study was divided into 3 sequential experiments, Experiment #1 (Groups 1-4), Experiment #2 (Groups 5-9) and Experiment #3 (Groups 10-13).

C57BL/6 mice [2] = assay: IP glucose tolerance test (IPGTT); format: in vivo; conditions: for effect on glucose levels / glucose tolerance, in words: Experiment 1, 100 nmol/kg IP 15 min prior to glucose IP (1.5 g/kg)
Description: Overnight-fasted mice were measured for glucose (pre-dose glucose). Immediately after, they were IP injected with one of the test articles. […] Blood glucose level were measured by tail vein sampling using a handheld glucometer.

C57BL/6 mice [3] = assay: Acute food intake study; format: in vivo
Description: At least one week before injection, mice were weighed and were transferred to a mini cage for acclimatization, (one mouse per cage). During the acclimatization period, they were handled daily and received two injections of vehicle to minimize stress during the study period. The day before the experiment, the mice were fasted. […] After injection, the mice were returned to their home cages (1 mouse per cage), and provided with a pre-weighed amount of chow. Food intake were measured 0, 1, 2, 4, 6, 8, 21, 32 and 44, 55, 68, 80, 93 and 141 h post injection by weighing the chow.
In this study, the acute effect on food intake was measured.
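Throughout, for CL: blood drawn at alternating time points, with three animals in each cohort.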
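Throughout, for Tmax: blood drawn at alternating time points, with three animals in each cohort.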
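Throughout, for Vd: blood drawn at alternating time points, with three animals in each cohort.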
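Throughout, for pharmacokinetic profile / PK parameters, comparison in words: blood drawn at alternating time points, with three animals in each cohort.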

Row | Molecule | pharmacokinetic profile / PK parameters, comparison in words [1] | CL ([1]; sc) [mL/min/kg] | Tmax ([1]; sc) [h] | Vd ([1]; sc) [L/kg] | AUC(0-t) ([1]; sc, 230 ug/kg) [ng·h/mL] | AUC∞ ([1]; sc, 230 ug/kg) [ng·h/mL] | CL ([1]; sc, 230 ug/kg) [mL/min/kg] | Cmax ([1]; sc, 230 ug/kg) [ng/mL] | MRT ([1]; sc, 230 ug/kg) [h] | Tmax ([1]; sc, 230 ug/kg) [h] | T½ ([1]; sc, 230 ug/kg) [h] | Vd ([1]; sc, 230 ug/kg) [L/kg] | Bioavailability [1] [%] | bioavailability as calculated from Experiments 1 & 2, change in words [1] | AUC(0-t) ([1]; iv, 230 ug/kg) [ng·h/mL] | AUC∞ ([1]; iv, 230 ug/kg) [ng·h/mL] | CL ([1]; iv, 230 ug/kg) [mL/min/kg] | MRT ([1]; iv, 230 ug/kg) [h] | T½ ([1]; iv, 230 ug/kg) [h] | T½β ([1]; iv, 230 ug/kg) [h] | other results
1 | OXM-CTP-CTP-CTP-CTP: oxyntomodulin with four CTPs on the carboxy terminus, SEQ ID NO: 27 (protein, OXM-CTPx4) MATGSRTSLLLAFGLLCLPWLQEGSAHSQGTFTSDYSKYLDSRRAQDFVQWLMNTKRNRNNIASSSSKAPPPSLPSPSRLPGPSDTPILPQSSSSKAPPPSLPSPSRLPGPSDTPILPQSSSSKAPPPSLPSPSRLPGPSDTPILPQSSSSKAPPPSLPSPSRLPGPSDTPILPQ | superior in these parameters compared to other variants | 5.923 | 2.0 | 5.3796 |  |  |  |  |  |  |  |  |  |  |  |  |  |  |  |  | glucose tolerance activity when administered 120 min prior to glucose (C57BL/6 mice [2]; Experiment 2, 100 nmol/kg IP 120 min prior to glucose): induced glucose tolerance activity; inhibition of food intake, comparison in words (C57BL/6 mice [3]; single administration, mice): did not last as long as OXM-CTPx5 or OXM-CTPx3
2 | OXM-CTP-CTP-CTP-CTP-CTP: oxyntomodulin with five CTPs on the carboxy terminus, SEQ ID NO: 29 (protein, OXM-CTPx5) MATGSRTSLLLAFGLLCLPWLQEGSAHSQGTFTSDYSKYLDSRRAQDFVQWLMNTKRNRNNIASSSSKAPPPSLPSPSRLPGPSDTPILPQSSSSKAPPPSLPSPSRLPGPSDTPILPQSSSSKAPPPSLPSPSRLPGPSDTPILPQSSSSKAPPPSLPSPSRLPGPSDTPILPQSSSSKAPPPSLPSPSRLPGPSDTPILPQ | superior in these parameters compared to other variants | 5.77 | 8 | 4.812 |  |  |  |  |  |  |  |  |  |  |  |  |  |  |  |  | T½ ([1]; sc): 9.63 h; cumulative food inhibition sustained for (C57BL/6 mice [3]; cumulative food intake, mice): at least 141 hrs; time for which food intake was reduced compared to vehicle (C57BL/6 mice [3]; single SC 1700 nmol/kg, male C57BL/6 mice): 5 days; duration of food intake inhibition, percentage of food intake per time interval (C57BL/6 mice [3]; time intervals over the experiment (FIG. 6B), single SC, male C57BL/6 mice): about 80 hours
3 | OXM-CTP-CTP: oxyntomodulin with two CTPs in tandem on the carboxy terminus, SEQ ID NO: 21, expressed in CHO cells (protein, OXM-CTP-CTP) LEDMATGSRTSLLLAFGLLCLPWLQEGSAHSQGTFTSDYSKYLDSRRAQDFVQWLMNTKRNRNNIASSSSKAPPPSLPSPSRLPGPSDTPILPQSSSSKAPPPSLPSPSRLPGPSDTPILPQ | superior PK parameters as compared to the CTP-OXM-CTP-CTP variant |  |  |  | 697.00 | 702.10 | 5.045 | 50.90 | 8.20 | 6.00 | 4.76 | 2.0789 |  |  |  |  |  |  |  |  | 
4 | OXM-CTP-CTP-CTP: oxyntomodulin with three CTPs on the carboxy terminus, SEQ ID NO: 25 (protein, OXM-CTPx3) MATGSRTSLLLAFGLLCLPWLQEGSAHSQGTFTSDYSKYLDSRRAQDFVQWLMNTKRNRNNIASSSSKAPPPSLPSPSRLPGPSDTPILPQSSSSKAPPPSLPSPSRLPGPSDTPILPQSSSSKAPPPSLPSPSRLPGPSDTPILPQ |  | 8.547 | 2.0 | 2.797 |  |  |  |  |  |  |  |  |  |  |  |  |  |  |  |  | T½ ([1]; sc): 3.78 h
5 | CTP-OXM-CTP: oxyntomodulin with one CTP on the amino terminus and one on the carboxy terminus, SEQ ID NO: 9 (protein, CTP-OXM-CTP) MATGSRTSLLLAFGLLCLPWLQEGSASSSSKAPPPSLPSPSRLPGPSDTPILPQHSQGTFTSDYSKYLDSRRAQDFVQWLMNTKRNRNNIASSSSKAPPPSLPSPSRLPGPSDTPILPQ |  |  |  |  | 144.87 | 170.82 | 20.7328 | 31.11 | 4.73 | 1.00 | 3.28 | 5.88775 | 24.44 | no significant improvement | 592.7 | 598.0 | 5.922 | 0.81 | 0.25 | 1.57 | Vd ([1]; iv, 230 ug/kg): 0.8069 L/kg; effect on glucose levels / glucose tolerance, in words (C57BL/6 mice [2]): increased glucose levels
6 | CTP-OXM-CTP-CTP: oxyntomodulin with one CTP on the amino terminus and two on the carboxy terminus, SEQ ID NO: 15 (protein, CTP-OXM-CTP-CTP) MATGSRTSLLLAFGLLCLPWLQEGSASSSSKAPPPSLPSPSRLPGPSDTPILPQHSQGTFTSDYSKYLDSRRAQDFVQWLMNTKRNRNNIASSSSKAPPPSLPSPSRLPGPSDTPILPQSSSSKAPPPSLPSPSRLPGPSDTPILPQ |  |  |  |  | 313.98 | 320.86 | 11.038 | 30.18 | 6.62 | 6.00 | 4.39 | 4.13925 | 32.43 | increased | 968.2 | 977.4 | 3.623 | 0.80 | 0.28 | 1.61 | Vd ([1]; iv, 230 ug/kg): 0.5064 L/kg
7 | CTP-CTP-OXM: oxyntomodulin with two CTPs on the amino terminus, SEQ ID NO: 23 (protein, CTPx2-OXM) MATGSRTSLLLAFGLLCLPWLQEGSASSSSKAPPPSLPSPSRLPGPSDTPILPQSSSSKAPPPSLPSPSRLPGPSDTPILPQHSQGTFTSDYSKYLDSRRAQDFVQWLMNTKRNRNNIARSGCGRGTLGLMGLPFTARFP |  |  |  |  | 114.15 | 129.85 | 27.2758 | 27.77 | 4.10 | 1.00 | 2.74 | 6.45976 | 23.36 | no significant improvement | 488.6 | 490.4 | 7.222 | 0.86 | 0.27 | 1.20 | Vd ([1]; iv, 230 ug/kg): 0.7481 L/kg; effect on glucose levels / glucose tolerance, in words (C57BL/6 mice [2]): minor impact on glucose tolerance
